Data on 22 molecules can be found in patent publication US20150203577A1 (Chugai, published 2015).

Numbering of substitutions follows the chain as printed. Read-outs that look alike come from different tables or passages of the source.

For test [1], the target named is T1, mouse FcγRIII extracellular domain, C-terminal His tag (mouse, UniProt P08508 31-215).
T1 construct: Whole entry named; also called mFcγRIII; mFcgRIII
T1 chain: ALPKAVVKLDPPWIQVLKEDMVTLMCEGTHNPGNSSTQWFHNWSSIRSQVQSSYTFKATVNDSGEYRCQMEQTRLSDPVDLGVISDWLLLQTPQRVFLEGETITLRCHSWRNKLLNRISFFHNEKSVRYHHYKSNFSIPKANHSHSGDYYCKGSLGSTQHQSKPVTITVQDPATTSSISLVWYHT
The test can be described thus: SPR (Biacore T200), 1:1 fit. The protocol: (§1) Each altered antibody was analyzed for its interaction with each Fcγ receptor prepared above using Biacore T100 (GE Healthcare Japan Corp.), Biacore T200 (GE Healthcare Japan Corp.), Biacore A100, or Biacore 4000. The running buffer used was HBS-EP+ (GE Healthcare Japan Corp.). The assay temperature was set to 25° C. The sensor chips used were chips prepared by immobilizing Protein L (ACTIGEN or BioVision) onto Series S Sensor Chip CM5 (GE Healthcare Japan Corp.) or Series S Sensor Chip CM4 (GE Healthcare Japan Corp.) by the amine coupling method.
(§2) In order to calculate the KD value of each altered antibody for FcγR, kinetic analysis was conducted according to the following method: first, the antibody of interest was captured onto any of these chips and allowed to interact with mFcγR diluted with a running buffer. For the obtained sensorgram, the assay results were globally fit into the 1:1 Langmuir binding model using Biacore Evaluation Software to calculate an association rate constant ka (L/mol/s) and a dissociation rate constant kd (1/s). From these values, the dissociation constant KD (mol/L) was calculated.
On the technique in general: In SPR one partner is held on a chip, and binding of the other changes the refractive index at the surface.

Test [2] deals with T2, mouse FcγRII extracellular domain, C-terminal His tag (mouse, UniProt P08101 30-210).
T2 construct: Whole entry named; also called mFcγRII; mFcgRII
T2 sequence: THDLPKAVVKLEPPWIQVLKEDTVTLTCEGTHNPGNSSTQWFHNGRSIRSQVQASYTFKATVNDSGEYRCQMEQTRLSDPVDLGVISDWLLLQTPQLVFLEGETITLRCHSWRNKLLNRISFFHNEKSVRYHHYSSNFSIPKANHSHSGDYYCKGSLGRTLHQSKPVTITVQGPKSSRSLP
The test can be described thus: SPR (Biacore T200), 1:1 fit. The protocol: as §1, §2

The target of test [3] is T1, mouse FcγRIII extracellular domain, …. The test can be described thus: SPR (Biacore T200); KD of H237-mIgG1/MRAL-k0 / KD of variant. The protocol:
as §1, §2

The target in test [4] is T3, mouse FcγRIII extracellular domain with C-terminal His tag (mouse, UniProt P08508 31-215).
T3 construct: Made on the basis of NCBI NP-034318.2; also called mFcγRIII; mFcgRIII
T3 chain: T1 chain
As to the kind of experiment: SPR Biacore T200. The protocol: as §1, §2

For test [5], the target named is T3, mouse FcγRIII extracellular domain with …. As to the kind of experiment: SPR Biacore T200.
Test [6] concerns the target T1, mouse FcγRIII extracellular domain, …. As to the kind of experiment: SPR (Biacore T200); KD of H237-mIgG1/MRAL-k0 / KD of variant.
Description: (§3) The antibody H chain variable region used was the variable region H237 (SEQ ID NO: 1) of the H chain VH3-IgG1 of the anti-IL-6 receptor antibody Fv4-IgG1 described in WO2009/125825. The antibody L chain commonly used was the L chain MRAL-k0 (SEQ ID NO: 2) of the anti-IL-6 receptor antibody tocilizumab. The aforementioned 7 variants were used as templates to substitute the amino acids at the alteration sites by the amino acids before the alteration. These variants were expressed and purified by the method of Reference Example 1 and evaluated for their binding to mFcγRII and mFcγRIII by the method of Reference Example 2 using Biacore T200.
as §1

Test [7] deals with T2, mouse FcγRII extracellular domain, …. Described as above.
Description: as §3, §1

Test [8] deals with T1, mouse FcγRIII extracellular domain, …. The description is as above.
For test [9], the target named is T2, mouse FcγRII extracellular domain, …. The description is as above. This is another data set of the same source.

B1: H237-MB476/MRAL-k0 (antibody, mouse IgG1, kappa)
heavy: QVQLQESGPGLVKPSETLSLTCAVSGHSISHDHAWSWVRQPPGEGLEWIGFISYSGITNYNPSLQGRVTISRDNSKNTLYLQMNSLRAEDTAVYYCARSLARTTAMDYWGEGTLVTVSSAKTTPPSVYPLAPGSAAQTNSMVTLGCLVKGYFPEPVTVTWNSGSLSSGVHTFPAVLQSDLYTLSSSVTVPSSTWPSETVTCNVAHPASSTKVDKKIVPRDCGCKPCICQPNEVEEVFIFPPKPKDVLTITLTPKVTCVVVDISKDDPEVQFSWFVDDVEVHTAQTQPREEQFNSTFRSVSELPIMHQDWLNGKEFKCRVNSAAFPAPIEKTISKTKGRPKAPQVYTIPPPKEQMAKDKVSLTCMITDFFPEDITVEWQWNGQPAENYKNTQPIMDTDGSYFVYSKLNVQKSNWEAGNTFTCSVLHEGLHNHHTEKSLSHSPGK
light: not shown
notes: copies: 2 + 2
What is called Kd is the free concentration of one partner at which half of the binding sites on the other are occupied at equilibrium, for simple one-to-one binding. Low readings indicate tighter binding, high ones weaker binding. Take B1: the figures for the Kd in [1] and in test [2] were 107 nM and 0.804 nM, respectively. Besides, the “relative mFcγRIII-binding activity (mIgG1 = 1)” value in test [3] is 2.6 fold.

B2: H237-mIgG1/MRAL-k0 (antibody)
heavy: B1 heavy with Q229T, P230V, N231P, E234S, E235S
light: not shown
notes: copies: 2 + 2
For the molecule B2, the equilibrium dissociation constant (Kd) in test [4] and in [5] was 282 nM throughout.

B3: H237-MB527/MRAL-k0 (antibody, mouse IgG1, kappa)
heavy: B1 heavy with S294L, N320D
light: not shown
notes: copies: 2 + 2
Regarding B3, the Kd in [1] is 51 nM; in test [2], 0.768 nM. In addition, the “relative mFcγRIII-binding activity (mIgG1 = 1)” value in [3] is 5.5 fold.

B4: H237-MB544/MRAL-k0 (antibody, mouse IgG1, kappa)
heavy: B1 heavy with Q229E, E235M, A322D, K330R
light: not shown
notes: copies: 2 + 2
With B4, the dissociation constant Kd amounted to 87.2 nM in test [1] and 0.76 nM in test [2]. Besides, in test [3], the “relative mFcγRIII-binding activity (mIgG1 = 1)” value came out at 3.2 fold.

B5: H237-MB529/MRAL-k0 (antibody, mouse IgG1, kappa)
heavy: B1 heavy with S294L, K330R
light: not shown
notes: copies: 2 + 2
For B5, the values for the Kd in test [1] and in test [2] were 47.6 nM and 0.745 nM, respectively. Also, the “relative mFcγRIII-binding activity (mIgG1 = 1)” value in test [3] worked out at 5.9 fold.

B6: H237-MB536/MRAL-k0 (antibody, mouse IgG1, kappa)
heavy: B1 heavy with N320D, A322D, K330R
light: not shown
notes: copies: 2 + 2
As for B6, the Kd was determined as 36.8 nM in [1] and 0.53 nM in test [2]. For the same molecule, in test [3], the “relative mFcγRIII-binding activity (mIgG1 = 1)” value worked out at 7.7 fold.

B7: H237-MB548/MRAL-k0 (antibody, mouse IgG1, kappa)
heavy: B1 heavy with Q229E, E235M, N320D, A322D, K330R
light: not shown
notes: copies: 2 + 2
In the case of B7, the Kd was 71.7 nM in test [1] and 0.589 nM in test [2]. In addition, in [3], the “relative mFcγRIII-binding activity (mIgG1 = 1)” value is 3.9 fold.

B8: H237-MB534/MRAL-k0 (antibody, mouse IgG1, kappa)
heavy: B1 heavy with S294L, N320D, K330R
light: not shown
notes: copies: 2 + 2
For B8, the dissociation constant (Kd) was 8.34 nM in test [1] and 0.499 nM in test [2]. Moreover, in [3], the “relative mFcγRIII-binding activity (mIgG1 = 1)” value worked out at 33.8 fold.

B9: H237-MB526/MRAL-k0 (antibody, mouse IgG1, kappa)
heavy: B1 heavy with S294L
light: not shown
notes: copies: 2 + 2
B9: the dissociation constant Kd in test [1] was determined as 33 nM; in [2] it was 0.904 nM. Also, in test [3], the “relative mFcγRIII-binding activity (mIgG1 = 1)” value was 8.5 fold.

B10: H237-MB532/MRAL-k0 (antibody, mouse IgG1, kappa)
heavy: B1 heavy with A322D, K330R
light: not shown
notes: copies: 2 + 2
As to B10, the dissociation constant (Kd) amounted to 45.4 nM in test [1] and 0.639 nM in [2]. Further, the “relative mFcγRIII-binding activity (mIgG1 = 1)” value in test [3] is 6.2 fold.

B11: H237-MB537/MRAL-k0 (antibody, mouse IgG1, kappa)
heavy: B1 heavy with S294L, N320D, A322D, K330R
light: not shown
notes: copies: 2 + 2
For the molecule B11, the values for the dissociation constant Kd in test [1] and in test [2] were 31.7 nM and 0.412 nM, respectively. The “relative mFcγRIII-binding activity (mIgG1 = 1)” value in test [3] was 8.9 fold.

B12: H237-MB700/MRAL-k0 (antibody, mouse IgG1, kappa)
heavy: B1 heavy with Q229E, P230V, N231P, V233E, E235Y
light: not shown
notes: copies: 2 + 2
Regarding B12, the “relative mFcγRIII-binding activity (mIgG1 = 1)” value in test [6] was 0.044 fold. For the same molecule, in test [7], the “relative mFcγRII-binding activity (mIgG1 = 1)” value came to 0.559 fold.

B13: H237-MB549/MRAL-k0 (antibody, mouse IgG1, kappa)
heavy: B1 heavy with Q229E, E235M, S294L, N320D, A322D, K330R
light: not shown
notes: copies: 2 + 2
Turning to B13, the Kd was determined as 52.1 nM in test [1] and 1 nM in [2]. Also, the “relative mFcγRIII-binding activity (mIgG1 = 1)” value in [3] came to 5.4 fold.

B14: H237-MB594/MRAL-k0 (antibody, mouse IgG1, kappa)
heavy: B1 heavy with Q229E, P230V, N231P, V233E, E235S
light: not shown
notes: copies: 2 + 2
In the case of B14, the “relative mFcγRIII-binding activity (mIgG1 = 1)” value in test [6] amounted to 0.057 fold; in test [8], 0.1 fold. The “relative mFcγRII-binding activity (mIgG1 = 1)” value in test [7] worked out at 1.3 fold; in [9] it was 1.85 fold.

B15: H237-MB530/MRAL-k0 (antibody, mouse IgG1, kappa)
heavy: B1 heavy with N320D, A322D
light: not shown
notes: copies: 2 + 2
As for B15, the Kd in test [1] is 35.1 nM; in [2], 0.337 nM. Moreover, the “relative mFcγRIII-binding activity (mIgG1 = 1)” value in test [3] amounted to 8 fold.

B16: H237-MB533/MRAL-k0 (antibody, mouse IgG1, kappa)
heavy: B1 heavy with S294L, N320D, A322D
light: not shown
notes: copies: 2 + 2
Regarding B16, the Kd in test [1] was found to be 39 nM; in test [2], 0.534 nM. Besides, the “relative mFcγRIII-binding activity (mIgG1 = 1)” value in test [3] stood at 7.2 fold.

B17: H237-MB528/MRAL-k0 (antibody, mouse IgG1, kappa)
heavy: B1 heavy with S294L, A322D
light: not shown
notes: copies: 2 + 2
On to B17, for which the Kd in test [1] came to 19.3 nM; in test [2], 0.56 nM. Moreover, the “relative mFcγRIII-binding activity (mIgG1 = 1)” value in test [3] turned out to be 14.6 fold.

B18: H237-MB531/MRAL-k0 (antibody, mouse IgG1, kappa)
heavy: B1 heavy with N320D, K330R
light: not shown
notes: copies: 2 + 2
Take B18: the dissociation constant (Kd) in test [1] stood at 85 nM; in test [2], 0.918 nM. The “relative mFcγRIII-binding activity (mIgG1 = 1)” value in test [3] was found to be 3.3 fold.

B19: H237-MB542/MRAL-k0 (antibody, mouse IgG1, kappa)
heavy: B1 heavy with Q229E, E235M, N320D, A322D
light: not shown
notes: copies: 2 + 2
Turning to B19, the Kd was determined as 83.3 nM in test [1] and 0.547 nM in [2]. For the same molecule, the “relative mFcγRIII-binding activity (mIgG1 = 1)” value in test [3] worked out at 3.4 fold.

B20: H237-MB702/MRAL-k0 (antibody, mouse IgG1, kappa)
heavy: B1 heavy with Q229T, P230A, N231Y, E235N
light: not shown
notes: copies: 2 + 2
Regarding B20, the “relative mFcγRIII-binding activity (mIgG1 = 1)” value in [6] came to 0.145 fold. Moreover, the “relative mFcγRII-binding activity (mIgG1 = 1)” value in test [7] turned out to be 0.96 fold.

B21: H237-MB703/MRAL-k0 (antibody, mouse IgG1, kappa)
heavy: B1 heavy with Q229E, P230A, N231P, E235N
light: not shown
notes: copies: 2 + 2
In the case of B21, in [6], the “relative mFcγRIII-binding activity (mIgG1 = 1)” value came to 0.104 fold. In addition, the “relative mFcγRII-binding activity (mIgG1 = 1)” value in test [7] was 0.943 fold.

B22: H237-MB535/MRAL-k0 (antibody, mouse IgG1, kappa)
heavy: B1 heavy with S294L, A322D, K330R
light: not shown
notes: copies: 2 + 2
On to B22, for which the Kd in [1] was determined as 33.2 nM; in test [2], 0.498 nM. In test [3], the “relative mFcγRIII-binding activity (mIgG1 = 1)” value stood at 8.5 fold.
